From PMC9275567 come the findings set out here.

In experiment [1] the target is RNA polymerase II (RNA Pol II) (human (endogenous in HeLa-Kyoto)) (UniProt P24928). As to the kind of experiment: cross-linking + co-IP.
In experiment [2] the target is FUsed in Sarcoma (FUS) in HeLa-Kyoto cells (human (endogenous in HeLa-Kyoto)) (UniProt P35637). As to the kind of experiment: cross-linking + co-IP.

Consider “FUsed in Sarcoma (FUS) in HeLa-Kyoto cells (from UniProt P35637 1-526) (natural protein)”, for which, in experiment [1], the percent of cellular FUS cross-linked to RNA Pol II stood at 21%.

Turning to “RNA polymerase II (RNA Pol II) (from UniProt P24928 1-1970) (complex)”, in experiment [2], the percent of RNA Pol II cross-linked to FUS (large particles, >70 nm) worked out at 69% and the percent of RNA Pol II cross-linked to FUS (whole cell lysate) amounted to 87%.
